± gives the standard deviation of the averaged measurements.
What follows are sequences tested on ATP (assay: switch fluorescence ratio, 500 uM ATP over buffer (Cy3 cluster intensity, sum of 5 cycles each) (fold (ratio)); higher = stronger signal-on switching upon ATP binding; sequences stand for … in TCGTCGGCAGCGTCAGATGTGTATAAGAGACAGTTTTTTTTTTTTTTTTTTTTTTTTT…TC). Details: aptamer strand: ATP DNA aptamer (quencher-CACCTGGGGGAGTATTGCGGAGGAAGG + anchor), 100 nM annealed; ATP concentration: 500 uM.
How it was run: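 Exposure to 500 uM ATP lasted 15 min at 22 °C before imaging, and a selection-buffer image was taken beforehand, for Cy3-labelled switching-strand clusters on a modified Illumina MiSeq flow-cell annealed to 100 nM quencher-labelled ATP aptamer. Five buffer/ATP cycles were run with NaOH stripping and re-annealing between them. The fluorescence ratio per cluster is summed target-cycle over summed buffer-cycle Cy3 intensity, averaged per switch-domain sequence. Clusters outside 100-1000 RFU were excluded.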

CCACATTGGA was tested. Which switch fluorescence ratio did it give?
Its switch fluorescence ratio is 1.001 ± 0.01.

Which switch fluorescence ratio does the source give for CCACGAGATA here?
Its switch fluorescence ratio is 1.115 ± 0.0033.

With CCACTTATGC as the sequence, how does the switch fluorescence ratio read?
The switch fluorescence ratio was 1.13 ± 0.089.

Which switch fluorescence ratio does the source give for CCAGAATTAA here?
Its switch fluorescence ratio is 0.976 ± 0.011.

Which switch fluorescence ratio does the source give for CCAGACGTTT here?
Its switch fluorescence ratio is 1.037 ± 0.0073.

CCAGCCCGGG was tested. Which switch fluorescence ratio did it give?
The switch fluorescence ratio was 1.008 ± 0.0051.

Which switch fluorescence ratio does the source give for CCAGCCGGGG here?
The switch fluorescence ratio was 1.06 ± 0.075.

Which switch fluorescence ratio does the source give for CCAGCCTAGT here?
The switch fluorescence ratio was 0.98408 ± 0.0008.

For CCAGCTTCTG, which switch fluorescence ratio is on record?
Its switch fluorescence ratio is 1 ± 0.065.

Which switch fluorescence ratio does the source give for CCAGGAAGGT here?
Its switch fluorescence ratio is 1.0204 ± 0.00069.

With CCAGGAGGAG as the sequence, how does the switch fluorescence ratio read?
The switch fluorescence ratio was 1 ± 0.027.

Which switch fluorescence ratio does the source give for CCAGGCTATT here?
The switch fluorescence ratio was 1.04 ± 0.026.

With CCAGGGAGGT as the sequence, how does the switch fluorescence ratio read?
Its switch fluorescence ratio is 1 ± 0.034.

CCAGGGGTGC was tested. Which switch fluorescence ratio did it give?
The switch fluorescence ratio was 1.48 ± 0.05.

Which switch fluorescence ratio does the source give for CCAGGGTATA here?
The switch fluorescence ratio was 1.03 ± 0.032.

For CCAGGGTGGG, which switch fluorescence ratio is on record?
Its switch fluorescence ratio is 1.03 ± 0.12.

For CCAGGGTTTT, which switch fluorescence ratio is on record?
Its switch fluorescence ratio is 1.06 ± 0.1.

How did the switch fluorescence ratio turn out when CCAGGTGTCT was run?
The switch fluorescence ratio was 2.16 ± 0.26.

CCAGTAGAGC was tested. Which switch fluorescence ratio did it give?
Its switch fluorescence ratio is 1.01 ± 0.034.

Which switch fluorescence ratio does the source give for CCAGTCGTCT here?
Its switch fluorescence ratio is 1.02 ± 0.026.

For CCAGTGGCGA, which switch fluorescence ratio is on record?
Its switch fluorescence ratio is 1.16 ± 0.039.

Which switch fluorescence ratio does the source give for CCAGTGGTTG here?
Its switch fluorescence ratio is 0.9817 ± 0.0056.

How did the switch fluorescence ratio turn out when CCAGTGTAGA was run?
The switch fluorescence ratio was 1.01 ± 0.0052.

With CCAGTGTGGT as the sequence, how does the switch fluorescence ratio read?
The switch fluorescence ratio was 1.07 ± 0.074.

CCAGTGTTAG was tested. Which switch fluorescence ratio did it give?
Its switch fluorescence ratio is 1.03 ± 0.013.

With CCATAAAGGG as the sequence, how does the switch fluorescence ratio read?
Its switch fluorescence ratio is 1.07 ± 0.098.

How did the switch fluorescence ratio turn out when CCATAGGGGA was run?
The switch fluorescence ratio was 1.0339 ± 0.00023.

Which switch fluorescence ratio does the source give for CCATATCGAC here?
The switch fluorescence ratio was 1.05 ± 0.05.

For CCATATTTGG, which switch fluorescence ratio is on record?
Its switch fluorescence ratio is 1.033 ± 0.0063.

CCATCAAGTG was tested. Which switch fluorescence ratio did it give?
Its switch fluorescence ratio is 1.108 ± 0.0049.

Which switch fluorescence ratio does the source give for CCATCGCCCT here?
Its switch fluorescence ratio is 1.17 ± 0.061.

CCATCGCCGG was tested. Which switch fluorescence ratio did it give?
Its switch fluorescence ratio is 1 ± 0.081.

How did the switch fluorescence ratio turn out when CCATCGGACA was run?
The switch fluorescence ratio was 1.016 ± 0.0064.

With CCATCGTAAC as the sequence, how does the switch fluorescence ratio read?
Its switch fluorescence ratio is 2.28 ± 0.37.

For CCATGAGTGT, which switch fluorescence ratio is on record?
The switch fluorescence ratio was 0.997 ± 0.032.

How did the switch fluorescence ratio turn out when CCATGATGGT was run?
Its switch fluorescence ratio is 1.014 ± 0.0084.

How did the switch fluorescence ratio turn out when CCATGATTTG was run?
The switch fluorescence ratio was 0.9922 ± 0.0042.

Which switch fluorescence ratio does the source give for CCATGCTTGT here?
The switch fluorescence ratio was 1.03 ± 0.035.

Which switch fluorescence ratio does the source give for CCATGGGGTG here?
Its switch fluorescence ratio is 1.25 ± 0.037.

CCATTAAGTC was tested. Which switch fluorescence ratio did it give?
Its switch fluorescence ratio is 1.02 ± 0.045.

Which switch fluorescence ratio does the source give for CCATTGGGTT here?
Its switch fluorescence ratio is 1.02 ± 0.031.

Which switch fluorescence ratio does the source give for CCATTTACGT here?
The switch fluorescence ratio was 1.04 ± 0.025.

How did the switch fluorescence ratio turn out when CCATTTTATT was run?
Its switch fluorescence ratio is 0.988 ± 0.031.

How did the switch fluorescence ratio turn out when CCATTTTCAT was run?
Its switch fluorescence ratio is 0.99 ± 0.041.

For CCATTTTTTG, which switch fluorescence ratio is on record?
Its switch fluorescence ratio is 0.993 ± 0.028.

For CCCAATCGGT, which switch fluorescence ratio is on record?
The switch fluorescence ratio was 1.05 ± 0.027.

Which switch fluorescence ratio does the source give for CCCAATGATC here?
The switch fluorescence ratio was 1.52 ± 0.043.

How did the switch fluorescence ratio turn out when CCCAATTATT was run?
Its switch fluorescence ratio is 1.016 ± 0.0048.

For CCCACTGGGA, which switch fluorescence ratio is on record?
The switch fluorescence ratio was 1.32 ± 0.39.

CCCAGCAGGT was tested. Which switch fluorescence ratio did it give?
Its switch fluorescence ratio is 1.9 ± 0.18.

For CCCAGGACGC, which switch fluorescence ratio is on record?
The switch fluorescence ratio was 1.397 ± 0.0036.

How did the switch fluorescence ratio turn out when CCCAGGTTAG was run?
The switch fluorescence ratio was 2.9 ± 0.2.

With CCCAGTATGG as the sequence, how does the switch fluorescence ratio read?
Its switch fluorescence ratio is 1.001 ± 0.0082.

For CCCATTGGGG, which switch fluorescence ratio is on record?
Its switch fluorescence ratio is 1.03 ± 0.011.

With CCCATTGTAA as the sequence, how does the switch fluorescence ratio read?
The switch fluorescence ratio was 1.04 ± 0.025.

CCCCCGGGGG was tested. Which switch fluorescence ratio did it give?
Its switch fluorescence ratio is 1.91 ± 0.15.

For CCCCCGTTCC, which switch fluorescence ratio is on record?
Its switch fluorescence ratio is 1.72 ± 0.2.

For CCCCGACTTT, which switch fluorescence ratio is on record?
The switch fluorescence ratio was 1.07 ± 0.018.

Which switch fluorescence ratio does the source give for CCCCGTAGTC here?
The switch fluorescence ratio was 4.6 ± 0.3.

With CCCCGTGTAT as the sequence, how does the switch fluorescence ratio read?
The switch fluorescence ratio was 2.48 ± 0.046.

How did the switch fluorescence ratio turn out when CCCCGTTTCG was run?
Its switch fluorescence ratio is 1.08 ± 0.046.

With CCCCTGGAAT as the sequence, how does the switch fluorescence ratio read?
The switch fluorescence ratio was 1.08 ± 0.03.

CCCCTTAGCG was tested. Which switch fluorescence ratio did it give?
The switch fluorescence ratio was 1.09 ± 0.0067.

How did the switch fluorescence ratio turn out when CCCCTTGTGA was run?
Its switch fluorescence ratio is 1.72 ± 0.04.

For CCCGAAGGTA, which switch fluorescence ratio is on record?
The switch fluorescence ratio was 1.01 ± 0.024.

CCCGAATCCT was tested. Which switch fluorescence ratio did it give?
The switch fluorescence ratio was 1.06 ± 0.034.

For CCCGATGAGC, which switch fluorescence ratio is on record?
The switch fluorescence ratio was 1.05 ± 0.025.

CCCGCTAAGG was tested. Which switch fluorescence ratio did it give?
The switch fluorescence ratio was 1.19 ± 0.028.

For CCCGGAGGCA, which switch fluorescence ratio is on record?
Its switch fluorescence ratio is 1.057 ± 0.004.

CCCGGCTGGT was tested. Which switch fluorescence ratio did it give?
Its switch fluorescence ratio is 0.9956 ± 0.0095.

Which switch fluorescence ratio does the source give for CCCGGGGGT here?
The switch fluorescence ratio was 1.13 ± 0.2.

For CCCGGGGTTT, which switch fluorescence ratio is on record?
The switch fluorescence ratio was 1.31 ± 0.36.

With CCCGGGTGAT as the sequence, how does the switch fluorescence ratio read?
Its switch fluorescence ratio is 4 ± 0.3.

For CCCGGGTTGT, which switch fluorescence ratio is on record?
The switch fluorescence ratio was 1.16 ± 0.12.

With CCCGGTTTTT as the sequence, how does the switch fluorescence ratio read?
Its switch fluorescence ratio is 1.06 ± 0.022.

With CCCGTATGTT as the sequence, how does the switch fluorescence ratio read?
The switch fluorescence ratio was 1.03 ± 0.018.

How did the switch fluorescence ratio turn out when CCCTAATAGA was run?
The switch fluorescence ratio was 1.03 ± 0.026.

Which switch fluorescence ratio does the source give for CCCTAGTGTG here?
The switch fluorescence ratio was 2.97 ± 2.6.

Which switch fluorescence ratio does the source give for CCCTATATAG here?
Its switch fluorescence ratio is 1.01 ± 0.011.

Which switch fluorescence ratio does the source give for CCCTCTCGGT here?
The switch fluorescence ratio was 1.037 ± 0.0028.

How did the switch fluorescence ratio turn out when CCCTGAGGGA was run?
Its switch fluorescence ratio is 1.18 ± 0.086.

Which switch fluorescence ratio does the source give for CCCTGGACGA here?
The switch fluorescence ratio was 1.07 ± 0.016.

CCCTGGCACT was tested. Which switch fluorescence ratio did it give?
Its switch fluorescence ratio is 1.12 ± 0.005.

CCCTGTTCGC was tested. Which switch fluorescence ratio did it give?
The switch fluorescence ratio was 1.03 ± 0.041.

How did the switch fluorescence ratio turn out when CCGAAATTTA was run?
The switch fluorescence ratio was 1.19 ± 0.02.

With CCGAAGGACT as the sequence, how does the switch fluorescence ratio read?
Its switch fluorescence ratio is 1.02 ± 0.072.

CCGAAGTCCT was tested. Which switch fluorescence ratio did it give?
Its switch fluorescence ratio is 1.25 ± 0.033.

CCGAATCCAG was tested. Which switch fluorescence ratio did it give?
Its switch fluorescence ratio is 1.111 ± 0.0099.

With CCGAATTTT as the sequence, how does the switch fluorescence ratio read?
The switch fluorescence ratio was 1.02 ± 0.037.

CCGAGGGGGG was tested. Which switch fluorescence ratio did it give?
Its switch fluorescence ratio is 1.25 ± 0.35.

How did the switch fluorescence ratio turn out when CCGAGGTCGT was run?
Its switch fluorescence ratio is 1.17 ± 0.066.

How did the switch fluorescence ratio turn out when CCGAGTAGAG was run?
The switch fluorescence ratio was 1.4 ± 0.067.

How did the switch fluorescence ratio turn out when CCGAGTGGGT was run?
The switch fluorescence ratio was 1.44 ± 0.57.

For CCGAGTTAGG, which switch fluorescence ratio is on record?
The switch fluorescence ratio was 1.068 ± 0.0066.

CCGAGTTTTT was tested. Which switch fluorescence ratio did it give?
The switch fluorescence ratio was 1.07 ± 0.086.

With CCGATAGATG as the sequence, how does the switch fluorescence ratio read?
The switch fluorescence ratio was 1.065 ± 0.0047.

How did the switch fluorescence ratio turn out when CCGATGATTG was run?
The switch fluorescence ratio was 1.08 ± 0.014.

How did the switch fluorescence ratio turn out when CCGATGGGGA was run?
The switch fluorescence ratio was 1.156 ± 0.0049.

For CCGATGGGGG, which switch fluorescence ratio is on record?
The switch fluorescence ratio was 1.01 ± 0.025.

How did the switch fluorescence ratio turn out when CCGATTATTT was run?
The switch fluorescence ratio was 0.997 ± 0.015.

From the supplement of paper PMC10126150
